Experimental data as given in the DeepSol protein solubility set.

Test: soluble on expression in E. coli; label from the status in PepcDB or PDB records

Row | Sequence | soluble on expression in E. coli
1 | MGSDKIHHHHHHMKIPKRLQPLVDDGLIDDVLQRLKSGKEADVYTVLCGDKIQCAKVYKEAMQRSFKQAVQYQEGRKVRNTRNARAMQKSSKFGRKQQEESWQTAEVEALFRLANAGVRVPQPYICIDGVLLMELVTDVDGAVAPRLSDVILTEESAIADFDTMIRNIVRMLCVGIVHGDLSEFNVLIDAQGPVIIDLPQAVDAAANNHAESMFARDVNNITAYYGQFAPQLLQTRYAQEIWMLYEDGKLTPETALTGLFVEAVHEVDMGSLIDEIIAAEDEFYERQRAKKERDDE | not soluble
2 | MGSDKIHHHHHHMKIVAIDTSTKQLSVALSDGQQILAEASYVTSLNHATKLMPLLERMMQEVNWSPRDLTRIVIADGPGSYTGLRIGATTAKTLAYTLGIDLVPVSTLELMAASAGSTGRIVAIQDARRGTGFVGFYEEGQLVGEEQHTVIADFVKTLPTDTKITGDTDKFTTELQSFTIVDPAFRAPRAGVLALLGAKREPVETHAFEPRYLRLAEAEAKWIEAQRHD | not soluble
3 | MGSDKIHHHHHHMKKIQLTNAHKEKLFQIPLFRDLPLNIKESLLDKLDFVIYAADKKEIVVTQGTPCNKLYVLLEGKLRTDIIDGLGNEVMIEYIIAPRTFATPHLFNSNNTLPATFTALEDSVVLMATKDSTFKVISQDPQVLHNFLCIAGNCNICTVSRLKPLSRKTVRERFIVYLFEHKKKDSLTVEIMHTQSQLAEYLNVSRPALSKEINKIIKEGLITMEGKKIEILNKMALEKYL | not soluble
4 | MGSDKIHHHHHHMKKKTAVVFGTFAPLHQGHIDLIQRAKRQCDQVWVVVSGYEGDRGEQVGLTLQKRFRYIREAFRGDELTLVCKLDETNLPRYPMGWQEWLDQMLAEISYDETQQELIFFVGEADYQQELSNRGFETVLQERKFGISATMIRENPSKYWKNIAQPFRRQFTKKVLIMGSASNGKTTLAKDLARYYDAPVSLEYAREYQIKNNVRDDELTPKDYYYLLLGQYDQTSKLIDSNANRGLVIADTNSLVTKGYYDYYMETEDQGDLSGETFDNLFVSILAKEKWDLILFVQPVGSYVNDGFRDMTMAEDHIRHSFSQHLDHMRERYLTTIPLVYLAEDYLGNYEAAKVAIDAIYQAD | not soluble
5 | MGSDKIHHHHHHMKKLENKKSSSIKLETVRRKTINLSETEFIKIDFLTHWETLPIVLKPNIDYLDLADWIESSQNFIETKLLKYGAILFRGFNVDTATTFERVCLALCSDLFNENGEHPRKSVSGKVYTPVSYPADKKLLWHNENSFNYSWPRKILFGCLQPAQQGGETPIVDSRIVFQLIDPKIRERFIDKKVMYIRNYGDRLGLNWETVFQTSDRLEVEAACTKAAIDFEWKTGNRLRTIAVRPAVVKHPQTKEMSWFNQAQHWHPACLDSQTRESLLSMFKQEDLPRNCYYGDGSLIEDSVLEEICGVYQQLEVSFPWKRGDLLLLDNLLTAHSRNSYMGERQLLVAMGEMANFEDV | not soluble
6 | MGSDKIHHHHHHMKKLLAIGILCIMVTAVMSGCVSEKEININNSNKITTNMPVSEKNITKILKYAKNMNLIYYDENGNIVNPYNGDKWKYKVFIDATGQKFLLKNKDDPVPSWAKEKLGDNFKVINVPLTRVIVMSSTEIALMEAINDDGSVIGSVKGIMWGKSYKWYFKDINKSLAEGKIIDVGSSSNPNWDKIIEINPQVIFVYPGYDGDKIIAKCKELGITYVADAEYLENDPLGRCEWVKMFAAFYNKEPEAKRYFEKVEDNCLKVINKTKNCPKVTVAWGYNSQWGCYVPENNSYVAKEIMFYCNGDYIFKDLNGTGSAKINYETFAERAKDADVWVVPSSTAWLSTFKEDNPGYETFKAVKNGRVFCESDDYWQLGLLKTDEVIMDLATILHPEAFKGRKTHFFLKYNIENNTATPFIAK | not soluble
7 | MGSDKIHHHHHHMKKLVFDYEMKLSFSSPVTDHRFQLRCIPATGPRQQVIDVAVKIEPDVELETTIDSFDSVVMTGFIPEPHTMFNYSVTGIAFVDNAHIKSEIYKPLYRFNSALTVPGPAIEALIGICHERIVSLPADCTPIDQAREVMDEVFKTFVYTPASTTIRTTAEEAFAQRKGVCQDYAHVMLSVCRHVGLTARYIAGLLGGEGATHAWVEIYHDGRWVGLDPTHNRMVDDNYITIAHGRDYRDCMLDIGIFSGCDVKQDQWVNASVHEQGY | not soluble
8 | MGSDKIHHHHHHMKKQPLAYRMRPSNIDEVIGQQHLVGEGKIIRRMVDAGQLSSMILYGPPGVGKTSIAQAIAGSTDTHYKLLNAVVNNKKDMEIVVEEAKMSGQLILILDEVHRLDKGKQDFLLPHLEKGLLILIGATTANPFHSINPAIRSRCQIFELTPLTTDEIKVALTRALTDKTHGLGEEPVVISDEALAHFAFACGGDVRSALNGLELAVRSTQPNVKGEKEITLSVAEECIQRKSFHHDKDGDAHYDVLSAFQKSIRGSDVNAALHYLARLIEAGDLVSIGRRLLVIAYEDIGLANPQAGPRTLAAIEAAERLGFPEGRIPLANAVVELCLSPKSNSAYVALDAAIADIRKGHVGSVPAHLKDAHYKGAEQLGRGIGYKYPHDYERGWVKQQYLPDSLKSRAYYEPKRTGKFEDALADVYEKLRKSTFSKES | not soluble
9 | MGSDKIHHHHHHMKKRLGSQTARIDSKPRIVSAVSMVGPKEGRGPLKDYFDIILSDDMNGEESFEKAESNMLYTVITEVIKKSNLTENDIDYLFAGDLLNQITSSSFAARDAKIPFYGLYGACSTMTESLSIAAMIMDGGFADYTIAATSSHFSAAERQFRYPLEYGSQRKPDAQWTVTGAGAMLLARQGDFPYITFVTAGKVKDYGITSPDSMGEAMAPAAVDTIKQHFKDTGRTPQDYDVIATGDLGRVGKKITEDLLKKEYGYDMSNIYMDCGEKIFNCDEQDTNSGGSGCGCSAVVDCGYIYKNMLSGKIKKALLISTGALMSTTSNLQGESIPGIAHAVSIEFGGMKNE | not soluble
10 | MGSDKIHHHHHHMKKYMRTCSPRLAKEKYCTGCMACSDACTHDAIKIVEKNCMPFVKVDTHKCMNCHLCEKACPIITPVKKNRAEEMNVYGGWANDEQTRIDAASGGGFSGLAQSFFHLHKEDKVAVIGATLANNRVYHQLIEQEKDIVLLTNSKYIQSDTQGIYKEVIERLKTGYWILFSGCPCQIAGLYGFLGKKRDSERLITIEVVCHGIASYEALDLHLKYYNSSRIYRFRDKRHGTQDWKQSQCTTIEQNGEEIKLKRKDDMFYAIYAGWMLDRKSCSNCQFAEINRVADITIADFWGLQVPDYYKQGVSLIIANNNKADTMIKAADAIYTFKESLRTAINGNPHLFTGYKLIQFHPIVMWPDFFRKILPKRIRFKILTNRMPYKLFWALYKLGTIYLVKYQKKQLISKFQKDDNLLKLLNNANRGGGKMA | not soluble
11 | MGSDKIHHHHHHMKLEKILQDLEQNHNLRTLTPLKHENKFVYKQDHKLLNLVGNDYLYLASSKELKAEFLNTLKEQDLFFSSSSSRSLSGNFEIYEKLESFLKTKFKDKEILHFNSGYHLNISCIAALSSVSKTLFLTDKFIHASMIDGLRLGRADFFRFHHKDMNHLESLIQKHYENYENIIVLSEALFSMDGDFSDFKTLCELKRRYDKIKLYIDEAHSVGCFDEEGLGLVKKLALENEVDFLVFTFGKALASMGACIICDEKYKKFFINKARAFIYSTALPPINVAWTQFIFKKMPYFKKEREKLELLSTFFKSKLQEKNHIVLGDAYIICLLLGENKKALEISQKLQKAGFFAPAIKEPTVPKNTARIRFSLHAGLNTEELERIIELL | not soluble
12 | MGSDKIHHHHHHMKLMRIQEMEEYILSHGTVSLDELCQVFNVSKNTVRRDINKLTEKGAIEKVYGGVTSIEKTALVPFENRTIQHQDEKTKIAHYASRFIEDHDLVFIDSGTTTKSILDTLDPAKNVTILTNSLDIINAASALKNINLIIIGNNYKRKTRSFVGMDDPAMLDKYNINKAFMSATGTTLTHGLTNSDLLEYEIKKRISEKAKEVYLLADHSKFGKSTLLTYAPFDRLHCIVTSQPLDDEYTQYCNEHQIGIHLA | not soluble
13 | MGSDKIHHHHHHMKLRILSDLHIEHAMPQAVPACDADIVILAGDIANGRDGIDWAARTFGQPLIYVPGNHEYYEGNVDAVDRLMADAAATHPGVHLLNGAVAEFSGASGRVRVLGTTWWTDYCLFGTDRREASMQACSAVMLDHRLIELNGDDGHLRHFSPEDALARHHIASAWLAGQLALPFDGKTVVVTHHGPDLGSLDPRYSHDLVSGGFLSRRPDLVAQADLWIHGHTHTSFDYCIDTSRVVCNPRGYVSRRTGELENSRFDWCCVVEI | not soluble
14 | MGSDKIHHHHHHMKLVVATNFDDSLLEGLKRYPDVKYIFGSFKRTITGHGRAGFIVPHIKEEQFETHISLAHSYGIKFLYTMNTNTLLGKEYDTEFIGKVMKEVDKLVNFGVDGFIVALPFLIRLIRTEYPDLEVSASSFSRIRNVREVEEYTNLGVNTIIMHEDANRDFKLLKEVAALSRANRFEIELILNNSCLYGCPFRLTHDNISSVTSMVNGVNDVWFEYPVLLCATDVLNDPANLIRSRWIRPEDIKYYEEIGINRFKIAGRNKKTDWILRVVKAYAERKYEGDLLDLVSYPQGRAATKAVQMVNGPSSYFILTSVRIDNTKFPKGWIKFFFTNDCDTRSCKECKYCDIVAERVMTVNGEPFKSSEWSIRQPYPINIIPKFKERK | not soluble
15 | MGSDKIHHHHHHMKLYKLLILDIDGTLRDEVYGIPESAKHAIRLCQKNHCSVVICTGRSMGTIQDDVLSLGVDGYIAGGGNYIQYHGELLYNQSFNQRLIKEVVCLLKKREVAFSIESQEKVFMNQKAKEIFETMNQLKGTNSCINKQHIQEKITYENNIEEYKSQDIHKICLWSNEKVFDEVKDILQDKMELAQRDISSQYYEIIQKDFHKGKAIKRLQERLGVTQKETICFGDGQNDIVMFQASDVTIAMKNSHQQLKDIATSICEDIFDNGIYKELKRRNII | not soluble
16 | MGSDKIHHHHHHMKMEELFKKHKIVAVLRANSVEEAKEKALAVFEGGVHLIEITFTVPDADTVIKELSFLKEKGAIIGAGTVTSVEQCRKAVESGAEFIVSPHLDEEISQFCKEKGVFYMPGVMTPTELVKAMKLGHTILKLFPGEVVGPQFVKAMKGPFPNVKFVPTGGVNLDNVCEWFKAGVLAVGVGSALVKGTPDEVREKAKAFVEKIRGCTE | soluble
17 | MGSDKIHHHHHHMKNLLDLTGKLNIYSPKFNRYQTSLMKIDMHRTKLEQKQPHFDAQKRRKKECKNSNTPFVRPKLELPHGHNKLLLHSCCAPCSGEVMEAIHASGIDFTIYFYNPNIHPLKEYLIRKEENIRFAEKWGIPFIDADYDRQNWFDRAKGMEDEPERGIRCTMCFDMRFEKAAQYAHENGFPVFTSCLGISRWKDMNQINGCGHRAAEKYDDVVYWDYNWRKGGGSQRMIEISKRERFYQQEYCGCVYSLRDTNKWREANGRQKIEIGKLYYSADK | not soluble
18 | MGSDKIHHHHHHMKNNLNNILEDSLNYKIGETLDELKSIKKLDEIFSKRKDQLYREKDEGKKVYGRFCVFVPTEIICAADAIPVGLCGGKESTIPSAEEDLPRNICPLIKSSYGFKKDKACPYFEASDVIVGETTCDGKKKMFEHMAELSEMYVMHLPHFKDERSYELWLKEVYDFKDYVEKFTGNKITEEKLKEAIDEENEERMLSHKLYELRSQIPTPITGKDALKIFQRSFLLDIKDRLAILKEVISELEERVKNGEGYTGKRILVAGCPMVAGNTKIVDIIEEVGGLVVGEETCTGTRKFDNLVNGYTIDDLAERYFKINCASAFKNDSRIERIKELVKEQNADGVVYYTLQYCHTFNVEGALIEKELKNLGIPIIRIETDYSESDKEQIKTRLEAFVEMI | not soluble
